Measured values as given in paper PMC10881500.

Tests used:
[1] = target: KFN (Mut3; HuJovi-1 VH T28K, Y32F, A96N), human IgG1 (human); test: SPR; Biacore T200; antibody as human IgG1 captured with an anti-human capture kit on CM5 to 200 RU; TRBC1 or TRBC2 as analyte, 150 s contact, 300 s dissociation, 30 μl/min, 25 °C, HBS-P+ pH 7.4; 1:1 Langmuir model
[2] = target: HuJovi-1 (humanized Jovi-1), human IgG1 (human); test: as above
Sequence of HuJovi-1 (humanized Jovi-1), human IgG1 (human) (heavy, as listed by the source, chain 1 of 2): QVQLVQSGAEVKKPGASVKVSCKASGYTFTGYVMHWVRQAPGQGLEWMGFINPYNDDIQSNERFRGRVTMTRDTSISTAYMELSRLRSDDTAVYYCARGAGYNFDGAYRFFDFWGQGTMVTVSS
Sequence of HuJovi-1 (humanized Jovi-1), human IgG1 (human) (light, as listed by the source, chain 2 of 2): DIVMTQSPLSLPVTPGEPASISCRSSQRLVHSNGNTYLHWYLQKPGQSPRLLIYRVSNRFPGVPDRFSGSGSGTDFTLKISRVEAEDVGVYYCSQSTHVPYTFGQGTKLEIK

Sequence of KFN (Mut3; HuJovi-1 VH T28K, Y32F, A96N), human IgG1 (human) (heavy, as listed by the source, chain 1 of 2): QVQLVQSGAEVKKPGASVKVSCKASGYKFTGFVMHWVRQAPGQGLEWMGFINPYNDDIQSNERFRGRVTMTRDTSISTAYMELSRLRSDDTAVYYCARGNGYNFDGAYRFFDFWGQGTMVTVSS
Sequence of KFN (Mut3; HuJovi-1 VH T28K, Y32F, A96N), human IgG1 (human) (light, as listed by the source, chain 2 of 2): as the sequence (light, as listed by the source, chain 2 of 2) above

With “Recombinant, purified TRBC1 (soluble αβ TCR with the β-chain constant domain TRBC1), SPR analyte” as the substance, how does the Kd [1] read?
Its Kd is 1.96 µM.

And the koff [1]?
The koff was 0.155 s⁻¹.

What does the source list for “Recombinant, purified TRBC2 (soluble αβ TCR with the β-chain constant domain TRBC2), SPR analyte”?
Kd [2]: 12.9 µM; koff [2]: 1.29 s⁻¹
